Test results as given in patent US20210032365A1 (Chugai, published 2021).
Where a chain is given by its changes, count along the chain named. Values belong to the binder of their own block, whether it stands above or below them.

Target: T1, human C1s (human, UniProt P09871 16-688)
T1 construct: also called hC1s; serum-derived human C1s (CompTech)
T1 sequence: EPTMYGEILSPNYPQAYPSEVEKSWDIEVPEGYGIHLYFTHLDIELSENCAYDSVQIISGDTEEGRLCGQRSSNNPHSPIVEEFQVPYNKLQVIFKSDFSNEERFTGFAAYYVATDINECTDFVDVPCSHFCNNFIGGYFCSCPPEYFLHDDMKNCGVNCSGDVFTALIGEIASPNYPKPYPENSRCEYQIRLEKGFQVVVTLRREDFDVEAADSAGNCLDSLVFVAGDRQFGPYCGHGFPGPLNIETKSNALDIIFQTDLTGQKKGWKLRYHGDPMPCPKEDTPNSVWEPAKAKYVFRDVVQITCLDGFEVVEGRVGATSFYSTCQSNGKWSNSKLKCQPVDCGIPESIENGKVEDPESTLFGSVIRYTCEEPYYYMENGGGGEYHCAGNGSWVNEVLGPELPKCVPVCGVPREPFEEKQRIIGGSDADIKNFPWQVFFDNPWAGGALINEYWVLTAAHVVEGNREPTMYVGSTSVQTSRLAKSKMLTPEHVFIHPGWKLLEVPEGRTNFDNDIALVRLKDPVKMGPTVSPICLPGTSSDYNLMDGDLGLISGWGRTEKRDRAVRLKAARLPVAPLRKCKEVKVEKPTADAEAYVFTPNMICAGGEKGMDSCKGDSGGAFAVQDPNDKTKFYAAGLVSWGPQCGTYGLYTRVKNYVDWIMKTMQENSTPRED
Assay: SPR, Ab captured; pH 7.4, 1.2 mM Ca
Experimental: Each antibody was captured onto the sensor surface by protein A/G. Antibody capture levels were aimed at 200 resonance unit (RU). Serum-derived human C1s (CompTech) or recombinant C1s prepared in EXAMPLE 1 was injected at 50 nM, followed by dissociation. The sensor surface was regenerated in each cycle with 10 mM Glycine-HCl, pH 1.5. […] The ratio of KD 5.8+ to KD 7.4+(“KD 5+/7+”) and that of KD 5.8− to KD 7.4+(“KD 5−/7+”) were calculated. When the KD 5+/7+ or KD 5−/7+ of a variant is larger than that of the parent antibody IPN009VH2-SG4GK/IPN009VK3-SK1, that variant is considered to be “pH”- or “pH and Ca”-dependent, respectively. When binding response in 5(+) buffer and/or in 5(−) buffer of a variant is much lower than that of IPN09VH2/IPN009VK3, that variant is also considered as “pH”- and/or “pH and Ca”-dependent. Therefore, such mutations are effective to generate “pH”- and/or “pH and Ca”-dependent antibody. To further enhance “pH” and/or “pH and Ca” dependency, a combination of histidine mutations was conducted. Antibodies with combinations of histidine mutations were evaluated using Biacore by the method described above.
C1_1IPN92H0033 (SEQ ID NO: 17)-SG4GK/IPN93L0024 (SEQ ID NO: 18)-SK1 (IPN92H0033/IPN93L0024) was selected for further optimization. Histidine, Lysine, Arginine, aspartic acid, glutamic acid, and glutamine scanning was conducted for CDRs and certain positions of FRs of IPN92H0033/IPN93L0024. Variants with a mutation were generated and purified, and evaluated using Biacore by the method mentioned above. All variants were evaluated using Biacore as mentioned above. Mutations that improved “pH” and/or “pH and Ca” dependency were selected for the combination.

Kd: 1.37 nM
koff: 0.000567 s⁻¹
kon: 413000 M⁻¹ s⁻¹
B1: C1_IPN92H0033-SG4GK/IPN93L0072-SK1 (antibody, human IgG4 S228P, kappa, name in Kabat numbering, V domains shown)
VH: EVMLVESGGGLVKPGGSLRLSCAASGFTFSNYAMSWVRQAPGKGLEWVATISSGGSHTYYLDSVKGRFTISRDNSKDTLYLQMNSLRAEDTALYYCARLFTGHAMDYWGQGTLVTVSS
VL: QIVLTQSPATLSLSPGERATLSCTASSSVKSSYLHWYQQKPGKAPKLWIYSTSNLASGVPSRFSGSGSGTDYTLTISSLQPEDFATYYCHQYYRLHPITFGQGTKLEIKR
notes: also called IPN92H0033/IPN93L0072

Kd: 1.76 nM
koff: 0.000518 s⁻¹
kon: 294000 M⁻¹ s⁻¹
B2: C1_IPN92H0166-SG4GK/IPN93L0024-SK1 (antibody, human IgG4 S228P, kappa, name in Kabat numbering, V domains shown)
VH: B1 VH with L61E
VL: B1 VL with K30S
notes: also called IPN92H0166/IPN93L0024

Kd: 0.985 nM
koff: 0.000774 s⁻¹
kon: 786000 M⁻¹ s⁻¹
B3: C1_IPN92H0261-SG4GK/IPN93L0091-SK1 (antibody, human IgG4 S228P, kappa, name in Kabat numbering, V domains shown)
VH: B1 VH with Y60E, G102K
VL: B1 VL with K30S, Y33R
notes: also called IPN92H0261/IPN93L0091

Kd: 0.121 nM
koff: 6.9e-05 s⁻¹
kon: 569000 M⁻¹ s⁻¹
B4: C1_IPN92H0253-SG4GK/IPN93L0024-SK1 (antibody, human IgG4 S228P, kappa, name in Kabat numbering, V domains shown)
VH: B1 VH with D106K
VL: B1 VL with K30S
notes: also called IPN92H0253/IPN93L0024

Kd: 3.68 nM
koff: 0.00126 s⁻¹
kon: 343000 M⁻¹ s⁻¹
B5: C1_IPN92H0144-SG4GK/IPN93L0024-SK1 (antibody, human IgG4 S228P, kappa, name in Kabat numbering, V domains shown)
VH: B1 VH with H57K
VL: B1 VL with K30S
notes: also called IPN92H0144/IPN93L0024

Kd: 0.925 nM
koff: 0.000474 s⁻¹
kon: 513000 M⁻¹ s⁻¹
B6: C1_IPN92H0193-SG4GK/IPN93L0024-SK1 (antibody, human IgG4 S228P, kappa, name in Kabat numbering, V domains shown)
VH: B1 VH with G66D
VL: B1 VL with K30S
notes: also called IPN92H0193/IPN93L0024

Kd: 2.69 nM
koff: 0.000746 s⁻¹
kon: 277000 M⁻¹ s⁻¹
B7: C1_IPN92H0091-SG4GK/IPN93L0024-SK1 (antibody, human IgG4 S228P, kappa, name in Kabat numbering, V domains shown)
VH: B1 VH with M34K
VL: B1 VL with K30S
notes: also called IPN92H0091/IPN93L0024

Kd: 0.686 nM
koff: 0.000897 s⁻¹
kon: 1.31e+06 M⁻¹ s⁻¹
B8: C1_IPN92H0279-SG4GK/IPN93L0091-SK1 (antibody, human IgG4 S228P, kappa, name in Kabat numbering, V domains shown)
VH: B1 VH with Y60E, G66E, G102K
VL: B1 VL with K30S, Y33R
notes: also called IPN92H0279/IPN93L0091

Kd: 2.12 nM
koff: 0.000771 s⁻¹
kon: 364000 M⁻¹ s⁻¹
B9: C1_IPN92H0156-SG4GK/IPN93L0024-SK1 (antibody, human IgG4 S228P, kappa, name in Kabat numbering, V domains shown)
VH: B1 VH with Y59K
VL: B1 VL with K30S
notes: also called IPN92H0156/IPN93L0024

Kd: 1.3 nM
koff: 0.000577 s⁻¹
kon: 444000 M⁻¹ s⁻¹
B10: C1_IPN92H0231-SG4GK/IPN93L0024-SK1 (antibody, human IgG4 S228P, kappa, name in Kabat numbering, V domains shown)
VH: B1 VH with G102K
VL: B1 VL with K30S
notes: also called IPN92H0231/IPN93L0024

Kd: 2.05 nM
koff: 0.000765 s⁻¹
kon: 374000 M⁻¹ s⁻¹
B11: C1_IPN92H0147-SG4GK/IPN93L0024-SK1 (antibody, human IgG4 S228P, kappa, name in Kabat numbering, V domains shown)
VH: B1 VH with T58D
VL: B1 VL with K30S
notes: also called IPN92H0147/IPN93L0024

Kd: 1.8 nM
koff: 0.000545 s⁻¹
kon: 303000 M⁻¹ s⁻¹
B12: C1_IPN92H0162-SG4GK/IPN93L0024-SK1 (antibody, human IgG4 S228P, kappa, name in Kabat numbering, V domains shown)
VH: B1 VH with Y60K
VL: B1 VL with K30S
notes: also called IPN92H0162/IPN93L0024

Kd: 2.06 nM
koff: 0.000621 s⁻¹
kon: 302000 M⁻¹ s⁻¹
B13: C1_IPN92H0159-SG4GK/IPN93L0024-SK1 (antibody, human IgG4 S228P, kappa, name in Kabat numbering, V domains shown)
VH: B1 VH with Y60D
VL: B1 VL with K30S
notes: also called IPN92H0159/IPN93L0024

Kd: 2.03 nM
koff: 0.000551 s⁻¹
kon: 271000 M⁻¹ s⁻¹
B14: C1_IPN92H0188-SG4GK/IPN93L0024-SK1 (antibody, human IgG4 S228P, kappa, name in Kabat numbering, V domains shown)
VH: B1 VH with K65D
VL: B1 VL with K30S
notes: also called IPN92H0188/IPN93L0024

Kd: 3.36 nM
koff: 0.00125 s⁻¹
kon: 373000 M⁻¹ s⁻¹
B15: C1_IPN92H0079-SG4GK/IPN93L0024-SK1 (antibody, human IgG4 S228P, kappa, name in Kabat numbering, V domains shown)
VH: B1 VH with Y32K
VL: B1 VL with K30S
notes: also called IPN92H0079/IPN93L0024

Kd: 0.885 nM
koff: 0.000468 s⁻¹
kon: 529000 M⁻¹ s⁻¹
B16: C1_IPN92H0194-SG4GK/IPN93L0024-SK1 (antibody, human IgG4 S228P, kappa, name in Kabat numbering, V domains shown)
VH: B1 VH with G66E
VL: B1 VL with K30S
notes: also called IPN92H0194/IPN93L0024

Kd: 2.03 nM
koff: 0.000689 s⁻¹
kon: 340000 M⁻¹ s⁻¹
B17: C1_IPN92H0157-SG4GK/IPN93L0024-SK1 (antibody, human IgG4 S228P, kappa, name in Kabat numbering, V domains shown)
VH: B1 VH with Y59R
VL: B1 VL with K30S
notes: also called IPN92H0157/IPN93L0024

Kd: 2.52 nM
koff: 0.001 s⁻¹
kon: 396000 M⁻¹ s⁻¹
B18: C1_IPN92H0281-SG4GK/IPN93L0024-SK1 (antibody, human IgG4 S228P, kappa, name in Kabat numbering)
heavy: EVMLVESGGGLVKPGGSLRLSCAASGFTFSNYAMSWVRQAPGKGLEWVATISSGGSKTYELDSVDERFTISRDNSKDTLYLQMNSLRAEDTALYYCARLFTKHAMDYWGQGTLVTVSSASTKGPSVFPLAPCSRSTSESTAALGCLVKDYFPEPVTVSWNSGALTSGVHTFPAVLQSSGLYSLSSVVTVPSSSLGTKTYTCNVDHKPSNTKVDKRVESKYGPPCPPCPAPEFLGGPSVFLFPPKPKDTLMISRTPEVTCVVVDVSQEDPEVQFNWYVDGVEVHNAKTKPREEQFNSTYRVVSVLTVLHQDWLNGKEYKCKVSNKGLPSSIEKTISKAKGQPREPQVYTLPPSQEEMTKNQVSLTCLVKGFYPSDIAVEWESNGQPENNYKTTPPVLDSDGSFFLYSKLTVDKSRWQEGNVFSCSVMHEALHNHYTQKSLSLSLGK
light: QIVLTQSPATLSLSPGERATLSCTASSSVSSSYLHWYQQKPGKAPKLWIYSTSNLASGVPSRFSGSGSGTDYTLTISSLQPEDFATYYCHQYYRLHPITFGQGTKLEIKRTVAAPSVFIFPPSDEQLKSGTASVVCLLNNFYPREAKVQWKVDNALQSGNSQESVTEQDSKDSTYSLSSTLTLSKADYEKHKVYACEVTHQGLSSPVTKSFNRGEC
notes: also called IPN92H0281/IPN93L0024

Kd: 1.77 nM
koff: 0.000512 s⁻¹
kon: 289000 M⁻¹ s⁻¹
B19: C1_IPN92H0165-SG4GK/IPN93L0024-SK1 (antibody, human IgG4 S228P, kappa, name in Kabat numbering, V domains shown)
VH: B1 VH with L61D
VL: B1 VL with K30S
notes: also called IPN92H0165/IPN93L0024

Kd: 4.72 nM
koff: 0.00216 s⁻¹
kon: 457000 M⁻¹ s⁻¹
B20: C1_IPN92H0281-SG4GK/IPN93L0091-SK1 (antibody, human IgG4 S228P, kappa, name in Kabat numbering, V domains shown)
VH: B1 VH with H57K, Y60E, K65D, G66E, G102K
VL: B1 VL with K30S, Y33R
notes: also called IPN92H0281/IPN93L0091

Kd: 1.5 nM
koff: 0.000609 s⁻¹
kon: 406000 M⁻¹ s⁻¹
B21: C1_IPN92H0232-SG4GK/IPN93L0024-SK1 (antibody, human IgG4 S228P, kappa, name in Kabat numbering, V domains shown)
VH: B1 VH with G102R
VL: B1 VL with K30S
notes: also called IPN92H0232/IPN93L0024

Kd: 4.71 nM
koff: 0.00157 s⁻¹
kon: 333000 M⁻¹ s⁻¹
B22: C1_IPN92H0145-SG4GK/IPN93L0024-SK1 (antibody, human IgG4 S228P, kappa, name in Kabat numbering, V domains shown)
VH: B1 VH with H57R
VL: B1 VL with K30S
notes: also called IPN92H0145/IPN93L0024

Kd: 3.41 nM
koff: 0.000863 s⁻¹
kon: 253000 M⁻¹ s⁻¹
B23: C1_IPN92H0117-SG4GK/IPN93L0024-SK1 (antibody, human IgG4 S228P, kappa, name in Kabat numbering, V domains shown)
VH: B1 VH with S53Q
VL: B1 VL with K30S
notes: also called IPN92H0117/IPN93L0024

Kd: 6.85 nM
koff: 0.00161 s⁻¹
kon: 236000 M⁻¹ s⁻¹
B24: C1_IPN92H0061-SG4GK/IPN93L0024-SK1 (antibody, human IgG4 S228P, kappa, name in Kabat numbering, V domains shown)
VH: B1 VH with F29K
VL: B1 VL with K30S
notes: also called IPN92H0061/IPN93L0024

Kd: 1.4 nM
koff: 0.000676 s⁻¹
kon: 482000 M⁻¹ s⁻¹
B25: C1_IPN92H0033-SG4GK/IPN93L0090-SK1 (antibody, human IgG4 S228P, kappa, name in Kabat numbering, V domains shown)
VH: B1 VH
VL: B1 VL with K30S, Y33K
notes: also called IPN92H0033/IPN93L0090

Kd: 1.52 nM
koff: 0.000558 s⁻¹
kon: 368000 M⁻¹ s⁻¹
B26: C1_IPN92H0160-SG4GK/IPN93L0024-SK1 (antibody, human IgG4 S228P, kappa, name in Kabat numbering, V domains shown)
VH: B1 VH with Y60E
VL: B1 VL with K30S
notes: also called IPN92H0160/IPN93L0024
